This is an account of results in publication PMC7235047.

Residue numbers refer to the chain shown, from its start. Names may count otherwise.

This test concerns the target γH2AX, P16104. Kind of test: proximity ligation assay (PLA). The note with it: chain shown with the change, U2OS cells transfected with GFP-RNF168 wildtype and mutants, antibodies against GFP and γH2AX, 75 (wildtype), parent: est. 43, read off a plot.

B1: GFP-RNF168 wildtype, Q8IYW5 R57D; E143del; E144del (protein)
chain: MALPKDAIPSLSECQCGICMEILVEPVTLPCNHTLCKPCFQSTVEKASLCCPFCRRDVSSWTRYHTRRNSLVNVELWTIIQKHYPRECKLRASGQESEEVADDYQPVRLLSKPGELRREYEEEISKVAAERRASEEEENKASYIQRLLAEEEEEEKRQAEKRRRAMEEQLKSDEELARKLSIDINNFCEGSISASPLNSRKSDPVTPKSEKKSKNKQRNTGDIQKYLTPKSQFGSASHSEAVQEVRKDSVSKDIDSSDRKSPTGQDTEIEDMPTLSPQISLGVGEQGADSSIESPMPWLCACGAEWYHEGNVKTRPSNHGKELCVLSHERPKTRVPYSKETAVMPCGRTESGCAPTSGVTQTNGNNTGETENEESCLLISKEISKRKNQESSFEAVKDPCFSAKRRKVSPESSPDQEETEINFTQKLIDLEHLLFERHKQEEQDRLLALQLQKEVDKEQMVPNRQKGSPDEYHLRATSSPPDKVLNGQRKNPKDGNFKRQTHTKHPTPERGSRDKNRQVSLKMQLKQSVNRRKMPNSTRDHCKVSKSAHSLQPSISQKSVFQMFQRCTK
Consider B1, for which the response (n = 53 cells (R57D/Δ143-144)) worked out at 11.

B2: GFP-RNF168 wildtype, Q8IYW5 E143del; E144del (protein)
chain: B1 chain with D57R
Take B2: where the note is “n = 74 cells (Δ143-144)”, the response turned out to be 34.
